Test results taken from patent US6468985B1, “Retinoblastoma protein-interacting zinc finger proteins” (The Burnham Institute, priority 1994, dated 2002).

How the values were obtained:
[1] = molecular target: T1, RIZ GTPase domain (GST-G) (Rattus norvegicus, UniProt Q63755); test: competition of unlabeled nucleotides for GTP binding of RIZ GTPase domain; conditions: 20 mM unlabeled nucleotide, 1 hr before α-32P-GTP
T1 construct: a fragment of RIZ from amino acid position 760-949 (RIZ 760-949), containing the putative GTPase domain; made in house; E. coli XL-1 blue is printed only for pKG7.1S)
T1 sequence (Q63755 760-949): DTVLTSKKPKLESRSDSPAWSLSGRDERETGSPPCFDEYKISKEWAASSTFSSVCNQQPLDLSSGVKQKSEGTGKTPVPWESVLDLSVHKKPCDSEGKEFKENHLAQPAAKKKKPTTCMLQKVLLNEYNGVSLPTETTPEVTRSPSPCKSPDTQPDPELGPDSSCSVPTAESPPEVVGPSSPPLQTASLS
Description: The GTPase domain of RIZ, which was defined by sequence homology, was evaluated to determine if it was functionally active. For these studies, a fragment of RIZ from amino acid position 760-949 (RIZ 760-949), containing the putative GTPase domain was expressed as a fusion to GST from the plasmid pKG-G and tested for binding to radiolabeled nucleotides. pKG-G was produced by PCR amplification of the nucleotide sequence encoding RIZ (760-949) using primers 5′-TCTCCACAGC ACAGCCCT-3′ (SEQ ID NO: 15), and 5′-GGATAAGGAG GCTGTCTG-3′ (SEQ ID NO: 16) and PCMVRIZ as template. The fragment was cloned into pBSK+ and then into PGEX-KG, expressed and purified by glutathionine-agarose as described above. GST was also expressed from vector PGEX-KG and purified as described above.
To measure GTP-binding, 0.5 μg of GST-RIZ or control GST proteins were separated by SDS-PAGE and blotted onto nitrocellulose. Proteins were renatured in GTP-binding buffer (50 mM Tris-HCl, pH8, 100 mM KCl, 10% glycerol, 0.1% Triton X-100, and 2 mM […]). The nitrocellulose was incubated for 30 min in GTP-binding buffer and then for 2 hr in GTP-binding buffer containing 1 μM α-^32P-GTP (800 Ci/mmol). The nitrocellulose was washed 5 times in GTP-binding buffer, dried and autoradiographed. In some samples, 20 mM unlabeled nucleotides were incubated with the nitrocellulose for 1 hr prior to the addition of α-^32P-GTP.

[2] = molecular target: T2, Rb from HT1080 cell extract (Homo sapiens, UniProt P06400); test: GST-RIZ (215-462) glutathione-agarose pull-down of Rb from cell extract, anti-Rb immunoblot; assay type: binding; conditions: cell lysate from 293 stably transfected to express E1A as source
T2 construct: endogenous in cells; host or cells: HT1080 cells (lysate)
T2 sequence (P06400 1-928): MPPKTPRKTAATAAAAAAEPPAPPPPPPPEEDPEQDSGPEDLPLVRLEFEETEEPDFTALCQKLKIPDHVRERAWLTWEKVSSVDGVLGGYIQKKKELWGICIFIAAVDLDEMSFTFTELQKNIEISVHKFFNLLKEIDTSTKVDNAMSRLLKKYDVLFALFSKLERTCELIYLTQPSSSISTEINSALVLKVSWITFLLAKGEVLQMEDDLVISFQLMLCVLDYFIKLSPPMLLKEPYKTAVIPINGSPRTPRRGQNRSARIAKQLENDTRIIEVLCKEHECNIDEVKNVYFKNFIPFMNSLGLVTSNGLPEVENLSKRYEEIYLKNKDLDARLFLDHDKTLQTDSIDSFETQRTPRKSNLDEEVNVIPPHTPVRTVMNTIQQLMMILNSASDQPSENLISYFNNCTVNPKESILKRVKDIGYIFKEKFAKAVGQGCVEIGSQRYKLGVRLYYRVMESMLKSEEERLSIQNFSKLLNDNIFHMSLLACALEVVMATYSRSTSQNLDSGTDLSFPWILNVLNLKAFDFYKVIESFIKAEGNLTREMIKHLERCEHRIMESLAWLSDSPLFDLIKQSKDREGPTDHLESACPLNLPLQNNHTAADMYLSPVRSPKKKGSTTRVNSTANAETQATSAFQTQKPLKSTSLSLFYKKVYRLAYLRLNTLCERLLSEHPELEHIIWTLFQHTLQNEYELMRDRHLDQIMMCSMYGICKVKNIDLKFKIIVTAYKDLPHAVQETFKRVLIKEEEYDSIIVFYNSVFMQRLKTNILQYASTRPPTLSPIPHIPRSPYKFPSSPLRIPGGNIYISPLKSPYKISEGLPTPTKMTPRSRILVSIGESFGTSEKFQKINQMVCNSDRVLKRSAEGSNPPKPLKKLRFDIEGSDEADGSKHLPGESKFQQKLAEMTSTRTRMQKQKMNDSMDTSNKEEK
Description: Rat RIZ was tested for binding to Rb in HT1080 cells (ATCC #ICCL 121). The cells were grown in DMEM supplemented with […]. Cells were lysed in ELB buffer (50 mM HEPES, pH 7.5, 250 mM NaCl, 0.1% NP-40) supplemented with 5 mM EDTA, 50 mM NaF, 1 mM Na orthovanadate, 1 mM of DTT, aprotinin, leupeptin, and PMSF. The lysate was cleared of cell debris by centrifugation at 12,000 rpm for 10 min in a microfuge.
Binding between 4 μg GST-RIZ (215-462) and Rb from HT1080 cell extract was evaluated by first mixing the two, then binding GST-RIZ and any associated Rb to glutathione-agarose beads. The beads were washed in binding buffer and the bound complexes were eluted by boiling in SDS buffer and analyzed by immunoblotting with anti-Rb antiserum. Immunoblotting was performed by standard techniques (see, for example, Harlow and Lane, supra, 1988).

[3] = molecular target: T3, wild-type full length Rb (A9), 35S-labeled (UniProt P06400 2-928, limits assumed, 35S label); test: 35S-labeled full-length Rb preincubated with RIZ (215-462), immunoprecipitated with anti-ce1
T3 construct: mature; also called wt-Rb; wild-type Rb
T3 sequence (looked up): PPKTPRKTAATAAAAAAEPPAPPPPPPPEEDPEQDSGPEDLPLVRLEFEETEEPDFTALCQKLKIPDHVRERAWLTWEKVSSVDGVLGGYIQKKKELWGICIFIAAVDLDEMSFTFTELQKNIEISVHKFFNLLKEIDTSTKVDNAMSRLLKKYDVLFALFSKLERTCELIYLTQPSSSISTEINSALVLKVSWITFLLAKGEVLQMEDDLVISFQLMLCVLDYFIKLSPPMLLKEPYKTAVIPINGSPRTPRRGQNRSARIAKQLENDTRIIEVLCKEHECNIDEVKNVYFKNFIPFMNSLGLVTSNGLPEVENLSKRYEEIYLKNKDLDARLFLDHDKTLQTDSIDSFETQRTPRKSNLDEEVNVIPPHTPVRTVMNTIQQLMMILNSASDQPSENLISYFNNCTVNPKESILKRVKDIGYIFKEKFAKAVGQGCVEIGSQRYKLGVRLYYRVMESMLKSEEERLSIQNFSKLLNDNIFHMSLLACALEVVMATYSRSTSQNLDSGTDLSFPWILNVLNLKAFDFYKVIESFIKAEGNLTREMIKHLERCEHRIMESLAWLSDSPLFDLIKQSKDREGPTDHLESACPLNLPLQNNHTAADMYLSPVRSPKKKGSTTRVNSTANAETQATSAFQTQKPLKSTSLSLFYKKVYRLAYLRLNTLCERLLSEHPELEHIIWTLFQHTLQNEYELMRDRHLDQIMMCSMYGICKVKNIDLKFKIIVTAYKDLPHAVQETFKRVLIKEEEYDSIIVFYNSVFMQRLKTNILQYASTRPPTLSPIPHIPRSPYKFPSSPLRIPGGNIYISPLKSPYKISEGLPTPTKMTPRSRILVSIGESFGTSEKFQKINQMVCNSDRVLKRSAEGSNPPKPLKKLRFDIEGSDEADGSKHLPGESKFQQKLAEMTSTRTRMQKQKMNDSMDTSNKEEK

[4] = molecular target: T3, wild-type full length Rb (A9), …; test: preformed complex tested with anti-ce1
[5] = molecular target: T4, 56 kD fragment of Rb produced by bacterial expression from p56Rb plasmid (UniProt P06400 379-928); test: peptide competition against labeled RIZ (1-575) for 56 kD Rb
T4 construct: range 379-928; Expressed in E. coli; also called 56 kD Rb
T4 sequence (looked up): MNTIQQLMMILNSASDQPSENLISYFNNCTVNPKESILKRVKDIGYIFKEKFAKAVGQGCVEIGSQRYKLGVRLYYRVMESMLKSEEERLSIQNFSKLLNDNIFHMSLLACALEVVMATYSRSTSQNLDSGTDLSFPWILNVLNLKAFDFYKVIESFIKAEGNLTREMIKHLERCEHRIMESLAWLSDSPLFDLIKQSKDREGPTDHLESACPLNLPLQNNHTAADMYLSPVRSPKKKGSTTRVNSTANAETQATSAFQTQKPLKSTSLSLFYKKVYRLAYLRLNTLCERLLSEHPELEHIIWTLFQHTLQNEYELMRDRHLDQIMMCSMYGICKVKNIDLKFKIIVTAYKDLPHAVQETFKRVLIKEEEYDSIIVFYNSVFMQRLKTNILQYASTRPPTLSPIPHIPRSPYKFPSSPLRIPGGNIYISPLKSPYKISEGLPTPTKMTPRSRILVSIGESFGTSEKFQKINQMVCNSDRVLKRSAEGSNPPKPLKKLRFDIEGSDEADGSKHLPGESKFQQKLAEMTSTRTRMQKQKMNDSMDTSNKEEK

[6] = molecular target: T3, wild-type full length Rb (A9), …; test: immunoprecipitation with anti-RIZ antiserum, SDS-PAGE, autoradiography

With Nc1ncnc2c1ncn2[C@@H]1O[C@H](COP(=O)(O)OP(=O)(O)OP(=O)(O)O)[C@@H](O)[C@H]1O [ATP] the “effect of excess unlabeled nucleotide on binding of RIZ GTPase to radiolabeled GTP” value (shortened to “effect of excess unlabeled nucleotide”) [1] was “did not effect binding”.

For Nc1ccn([C@@H]2O[C@H](COP(=O)(O)OP(=O)(O)OP(=O)(O)O)[C@@H](O)[C@H]2O)c(=O)n1 [CTP], the “effect of excess unlabeled nucleotide” value [1] was “did not effect binding”.

In the case of Nc1nc2c(ncn2[C@@H]2O[C@H](COP(=O)(O)OP(=O)(O)OP(=O)(O)O)[C@@H](O)[C@H]2O)c(=O)[nH]1 [GTP], the “effect of excess unlabeled nucleotide” value [1] is reported as “inhibited binding”.

O=c1ccn([C@@H]2O[C@H](COP(=O)(O)OP(=O)(O)OP(=O)(O)O)[C@@H](O)[C@H]2O)c(=O)[nH]1 [UTP] was tested, and the “effect of excess unlabeled nucleotide” value [1] was “did not effect binding”.

“E1A: adenoviral E1A protein; source was cell lysate from 293 stably transfected to express E1A [reference compound]” was tested, and the “inhibition of binding of GST-RIZ (215-462) to hypophosphorylated Rb” value [2] was “inhibited binding”.

B1: RIZ (215-462) with the GST portion removed by thrombin cleavage (other)
chain: PLASAPEQPAPLPEVGNQDAVPQVAIPLPACEPQPEVDGKQEVTDCEVNDVEEEELEEEEELEEEEEEELGEDGVEEADMPNESSAKEPEIRCEEKPEDLLEEPQSMSNEAREDSPDVTPPPHTPRAREEANGDVLETFMFPCQHCERKFATKQGLERHMHIHISTINHAFKCKYCGKRFGTQINRRRHERRHETGLKRRPSMTLQSSEDPDDGKGENVTSKDESSPPQLGQDCLILNSEKTSQEVLN
B1: binds [3].

B2: 35S labeled fragment of RIZ from amino acid position 1-575 (other)
chain: MHQNTESVAATETLAEVPEHVLRGLPEEVRLFPSAVDKTRIGVWATKPILKGKKFGPFVGDKKKRSQVRNNVYMWEVYYPNLGWMCIDATDPEKGNWLRYVNWACSGEEQNLFPLEINRAIYYKTLKPIAPGEELLVWYNGEDNPEIAAAIEEERASARSKRSSPKSRRGKKKSHENKNKGIRTHPTQLKASELDSTFANMRGSAEGPKEEDERPLASAPEQPAPLPEVGNQDAVPQVAIPLPACEPQPEVDGKQEVTDCEVNDVEEEELEEEEELEEEEEEELGEDGVEEADMPNESSAKEPEIRCEEKPEDLLEEPQSMSNEAREDSPDVTPPPHTPRAREEANGDVLETFMFPCQHCERKFATKQGLERHMHIHISTINHAFKCKYCGKRFGTQINRRRHERRHETGLKRRPSMTLQSSEDPDDGKGENVTSKDESSPPQLGQDCLILNSEKTSQEVLNSSFVEENGEVKELHPCKYCKKVFGTHTNMRRHQRRVHERHLIPKGVRRKGGLLEEPQPPAEQAPPSQNVYVPSTEPEEEGETDDVYIMDISSNISENLNYYIDGKIQTNSSTS
modifications: 35S label
notes: In vitro transcribed/translated from Spe I linearized template
B2: binds [4].

B3: RIZ-Pep, 11 amino acid peptide EIRCEEKPEDL representing a portion of the cr2 motif of RIZ (peptide)
peptide: EIRCEEKPEDL
notes: Synthetic peptide; also called cr2 peptide
B3: binds [5].

B4: glutathionine S-transferase (GST) fused to a fragment of RIZ from amino acid position 245-573 (other)
chain: CEPQPEVDGKQEVTDCEVNDVEEEELEEEEELEEEEEEELGEDGVEEADMPNESSAKEPEIRCEEKPEDLLEEPQSMSNEAREDSPDVTPPPHTPRAREEANGDVLETFMFPCQHCERKFATKQGLERHMHIHISTINHAFKCKYCGKRFGTQINRRRHERRHETGLKRRPSMTLQSSEDPDDGKGENVTSKDESSPPQLGQDCLILNSEKTSQEVLNSSFVEENGEVKELHPCKYCKKVFGTHTNMRRHQRRVHERHLIPKGVRRKGGLLEEPQPPAEQAPPSQNVYVPSTEPEEEGETDDVYIMDISSNISENLNYYIDGKIQTNSS
notes: Expressed from pKG7.1S in E. coli and purified on glutathione agarose; also called GSTZ13; not shown: glutathione S-transferase from vector pGEX-KG
B4: binds [6].
